Reference: the supplement of paper PMC10567573
± gives the standard deviation.

Test: protein stability index of a GFP-peptide fusion (GPS, HEK-293T) (PSI 1-6); higher = more stable
Conditions: c terminus: a fixed tail appended
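Note: 24-mer peptide tiles fused after GFP, lentivirally expressed, FACS-sorted into six equal bins by GFP/DsRed ratio, decoded by Illumina sequencing, PSI is the read-weighted mean bin number.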

Sequence	protein stability index (treatment: DMSO)	protein stability index (treatment: MLN4924 1 uM, 8 h)
YLLALTIIVSIVHSVFEFLAFKND [CLPTM1]	2.985 ± 0.024	2.85 ± 0.5
YLLTVMAAAAKAFKHPSIRNPVSL [ADAMTS4]	2.56 ± 0.62	2.15 ± 0.32
YMDRFTVAGVLPDIEQFFNIGDSS [SPNS1]	2.71 ± 0.34	2.99 ± 0.18
YMSQVLEKEMKAQEQRLGIRISMS [GMPPB]	2.38 ± 0.094	2.74 ± 0.42
YNDVMQENYETVISLALFVLPKPK [ZNF75A]	2.82 ± 0.64	2.71 ± 0.84
YNILKTCRGHTLERSVFSERTEES [CARM1]	2.56 ± 0.5	2.56 ± 0.6
YNLTILDCLQGIRKGLQHGFFDFE [CDC14A]	2.68 ± 1.1	2.71 ± 0.89
YNNDIDYYAKRNALRAAEVWMDDF [GALNT9]	2.96 ± 0.076	2.99 ± 0.32
YQDKIRPYIQLPSHSNITGIVEVI [TRIB1]	2.39 ± 0.3	2.17 ± 0.094
YQEASNLEQFVTRFLLKETLNQLQ [NECAB1]	2.66 ± 0.81	2.44 ± 0.69
YRFLLYGLHEGKRLGPLSAEGTTG [TNXB]	2.8 ± 0.62	2.29 ± 0.31
YRQWHAKIFVENLRRQKSLRLEWE [IQUB]	2.29 ± 0.54	1.87 ± 0.28
YRRVNELLLSILNPTRQDESIQRI [ZER1]	2.46 ± 0.14	2.66 ± 0.53
YSEHFLQEAKLLHWNGRHKPWDFP [GLT8D2]	2.17 ± 0.21	2.41 ± 0.36
YSFYLFHPLAYGMVGPLAQDPQSP [POMT2]	2.45 ± 0.7	2.67 ± 0.43
YSSNQLHHFFCDIAPVLKLASHHN [OR10K2]	2.59 ± 0.72	2.17 ± 0.38
YSSRTPGTPGTPSYPRTPHTPGTP [MAP2]	4.25 ± 0.26	4.27 ± 0.2
YTFHARFGEVRPYFYLGGARGAGP [TRIM35]	2.27 ± 0.083	2.28 ± 0.4
YVGEPLVCEVQVHGGSLLGKKYNW [GFOD1]	2.61 ± 0.62	2.18 ± 0.42
YVKVLHHMVKISGGPRISYPLLHE [MAGEA6]	2.68 ± 0.52	2.41 ± 0.5
YVWVPIEQCLPSLENSKYCRFNQD [ATE1]	2.3 ± 0.4	2.19 ± 0.12
YYTFHFLYFKDKIFNVAIPRFHMA [FBXO3]	3.06 ± 0.48	2.81 ± 0.2
